This is an account of results in US7179650 (University of Texas, dated 2007).

To fix the notation:
B1: sentrin-1 (24-101) (yeast two-hybrid) (other)
chain: LKVIGQDSSEIHFKVKMTTHLKKLKESYCQRQGVPMNSLRFLFEGQRIADNHTPKELGMEEEDVIEVYQEQTGGHSTV
notes: also called deletion of the N terminal 23 amino acids; not shown: GAL4 fusion domain of the two-hybrid vector
B2: The N-terminal 23 amino acids of sentrin-1 (yeast two-hybrid) (peptide)
chain: MSDQEAKPSTEDLGDKKQGEYIK
notes: Range worked out from the words: the N-terminal 23 amino acids; also called sentrin-1 (1-23); not shown: GAL4 fusion domain of the two-hybrid vector
B3: sentrin-1 (1-70) (yeast two-hybrid) (other)
chain: MSDQEAKPSTEDLGDKKQGEYIKLKVIGQDSSEIHFKVKMTTHLKKLKESYCQRQGVPMNSLRFLFEGQR
notes: also called deletion of the C-terminal 31 amino acids; not shown: GAL4 fusion domain of the two-hybrid vector
B4: Sentrin-1 with substitution of Ala-Ala for Gly-Gly (yeast two-hybrid) (other)
chain: MSDQEAKPSTEDLGDKKQGEYIKLKVIGQDSSEIHFKVKMTTHLKKLKESYCQRQGVPMNSLRFLFEGQRIADNHTPKELGMEEEDVIEVYQEQTAAHSTV
notes: not shown: GAL4 fusion domain of the two-hybrid vector
B5: E2-EPF (yeast two-hybrid) (enzyme, human, UniProt Q16763 1-222, looked up)
chain: MNSNVENLPPHIIRLVYKEVTTLTADPPDGIKVFPNEEDLTDLQVTIEGPEGTPYAGGLFRMKLLLGKDFPASPPKGYFLTKIFHPNVGANGEICVNVLKRDWTAELGIRHVLLTIKCLLIHPNPESALNEEAGRLLLENYEEYAARARLLTEIHGGAGGPSGRAEAGRALASGTEASSTDPGAPGGPGGAEGPMAKKHAGERDKKLAAKKKTDKKRALRRL
notes: as for B4
B6: UbCH6 (yeast two-hybrid) (enzyme, human, UniProt P51965 1-193, looked up)
chain: MSDDDSRASTSSSSSSSSNQQTEKETNTPKKKESKVSMSKNSKLLSTSAKRIQKELADITLDPPPNCSAGPKGDNIYEWRSTILGPPGSVYEGGVFFLDITFTPEYPFKPPKVTFRTRIYHCNINSQGVICLDILKDNWSPALTISKVLLSICSLLTDCNPADPLVGSIATQYMTNRAEHDRMARQWTKRYAT
notes: as for B4

The first experiment concerns the target T1, Full-length human Ubc9 in pGAD424 (GAL4 activation domain fusion) (human, UniProt P04386 768-881; P63279 1-158).
T1 construct: also called human ubiquitin conjugating enzyme
The experiment in a line: yeast two-hybrid.
Turning to B1, the binding result was “binds”. For B2, the binding result is “no binding”.

Regarding B3, the binding result is given as “no binding”.

In the case of B4, the binding result is “no binding”.

For the next experiment, the target named is T2, Gal-4-sentrin-1 (pGBT9-sentrin-1, full-length sentrin-1 fused to the GAL4 DNA-binding domain) (human, UniProt P04386 1-147 (Saccharomyces cerevisiae entry)).
T2 construct: also called wild type sentrin-1; sentrin-1 bait
The experiment in a line: yeast two-hybrid.
B5: the binding result is listed as “no binding”.

Consider B6, for which the binding result is on record as “no binding”.
